Assay results published in patent US12618835B2, “Multiplex microelectrode array for detection of proteases as biomarkers” (Kansas State University Research Foundation, priority 2021, dated 2026).
“Also recorded” adds a separate entry of the source. Where no end group is shown, it is not given here. [ ]: non-standard residue; d: D form. The star is where a group is joined. aminomethylferrocene = [Fe+2].c1cc[c-](CN*)c1.c1cc[cH-]c1; Ava = NCCCCC(=O)O

Columns and labels:
[1] = biological target: T1, cathepsin B (Homo sapiens, UniProt P07858); test: Determination of cleavage sites by HPLC-MS; type: biochemical; design: purchased R&D Systems Inc. (Minneapolis, MN); details: 50 mM MES pH 5.0, 250 mM NaCl, 0.17 μM cathepsin B, 2 h and 3 h
Text: Here, the data is normalized to the value of ip0 derived from the fitting data according to eq 9. This normalization accounts for variations in I′ of the peptide-Fc substrate between each of the electrodes, and the values of ip0 and values of ip0 are listed in Table S3. […] FIG. 8b is a bar graph illustrating the differences in the measured values of 1/τ broken down by channels with H-16 (shown in blue), H-15 (shown in red) and H-3 (shown in green), similar to FIG. 8a. Here the average values of 1/τ were measured to be (8.9±1.1)×10^−4 s^−1, (6.8±1.8)×10^−4 s^−1, and (7.4±0.9)×10^−4 s^−1 for H-16, H-15 and H-3, respectively. These three peptides show similar values of 1/τ because the majority of the amino acid sequences are similar. […] For peptide H-15, all analyte solutions contained 6.5 mM peptide H-15, 50 mM MES buffer (pH 5.0) and 250 mM NaCl. Chromatograms of the peptide in the solution were then analyzed. H-15 appeared at 35.9 min in the chromatogram as verified by mass spectrometry. After incubation with cathepsin B for 2 h the cleaved fragment connected to the Fc moiety appeared at 16.0 min in the chromatogram as verified by mass spectrometry [showing a mass of 626.5 [M+23(Na)] in the mass spectrum]. A final chromatogram of peptide H-15 obtained after incubation with 5.75 ng/μL (0.17 μM) cathepsin B for 3 h confirms the cleavage site. Analyte solution for peptide H-16 was 50 mM MES (pH 5.0) and 250 mM NaCl. The hexapeptide appeared at 33.4 min in the HPLC chart and its structure was verified by mass spectrometry analysis. After treatment of hexapeptide H-16 with cathepsin B in 50 mM MES (pH 5.0) and 250 mM NaCl for 2 h the cleaved fragment appeared at 16.0 min and its structure was verified by MS analysis [showing a mass of 625.043 (M−H2+1) in the mass spectrum]. Cleavage was confirmed by incubation of 6.5 mM peptide H-16 in 50 mM MES (pH 5.0) and 250 mM NaCl incubated with 5.75 ng/μl (0.17 μM) cathepsin B for 3 h.
The cleavage sites of the hexapeptide-Fc substrates were examined using HPLC as described above. Analytical HPLC was performed with a Shimadzu SCL-10A HPLC system fitted with a proto 300 C18 reverse phase semi-prep column (10 μm, 250×10 mm). The flow rate was 1 ml/min with a gradient elution starting from 100% solvent A (water containing 0.1% TFA) to 20% solvent A and 80% solvent B (acetonitrile containing 0.1% TFA) over 50 min. The UV absorbance was monitored at 254 nm. […] The absorbance peak at ˜33.5 min was peptide H-16 and peak at 16.0 min is assigned as [Leu-Ala-Gly-Val-Ala-NH═CH-Fc]^+ (residues 2-6 of SEQ ID NO:3) (mass of 625.288). […]

[2] = biological target: T1, cathepsin B; test: Screening of peptide-Fc substrates for cathepsin B (electrochemical measurements, fluorogenic assays, HPLC-MS); type: biochemical; details: for proteolysis rate by cathepsin B compared to other candidates: library of nine peptide-Fc substrates
Text: A library of nine peptide substrates was examined initially for proteolysis using cathepsin B (Table S1). […] The order and amino acid sequence of the peptide substrates were designed according to the literature reported sequences with minor modifications. Among the nine peptides, three most reactive peptide substrates, i.e., H-3, H-15, and H-16 (Table 1), were selected for our studies on cathepsin B activity profiling. The peptides were designed based on literature reports and synthesized using a solid-phase microwave peptide synthesizer detailed in the Supporting Information below. For example, peptide H-15, a representative peptide, was made by the coupling of H-Ala-2-chlorotrityl resin with various N-fluorenylmethyloxycarbonyl-amino acids (N-Fmoc-amino acids) sequentially, condensing with the linker N-Boc-NH—(CH2)4—CO2H, cleavage of the peptide from the resin, re-protection of the amino group of linker, bonding with (aminomethyl)ferrocene, and removal of the protecting group.
We have designed and synthesized nine different peptide-Fc substrates containing 6-8 amino acids (listed in Table S1 below) for proteolysis by cathepsin B based on the specific recognition reported in literature and tested the cathepsin B activities on these peptide-Fc substrates by the combination of electrochemical measurements (using Au disk electrodes and VACNF nanoelectrode arrays), fluorogenic assays and HPLC-MS analysis.

Substance | cleavage site by cathepsin B [1] | proteolysis rate by cathepsin B compared to other candidates [2] | cleavage site by cathepsin B ([1]; listed as peptide-Fc) | proteolytic activity by cathepsin B among synthesized peptides ([2]; selected from about 30 synthesized peptides)
H2N-(CH2)4-CO-Pro-Leu-Ala-Gly-Val-Ala-NH-CH2-Fc ([Ava]PLAGVA-aminomethylferrocene) [Peptide H-16] | between Pro-Leu | most reactive; also recorded: higher proteolysis rates |  | 
H2N-(CH2)4-CO-Pro-Leu-Ala-Phe-Val-Ala-NH-CH2-Fc ([Ava]PLAFVA-aminomethylferrocene) [Peptide H-15] | between Leu and Ala residues | most reactive; also recorded: higher proteolysis rates | between Leu and Ala | highest proteolytic activity
H2N-(CH2)4-CO-Pro-Leu-Arg-Phe-Gly-Ala-NH-CH2-Fc ([Ava]PLRFGA-aminomethylferrocene) [Peptide H-3] | between Gly-Ala and Phe-Gly residues | most reactive; also recorded: higher proteolysis rates |  | 
